{"source": "patent US20240327505A1", "key": {"[1]": {"molecular_target": "SARS-CoV-2 Wuhan-1 full-length Spike protein on pseudovirus (SARS-CoV-2) (UniProt P0DTC2)", "test": "cell-based or functional assay"}, "[2]": {"molecular_target": "SARS-CoV-1 spike protein on pseudovirus (SARS-CoV-1) (UniProt P59594)", "test": "cell-based or functional assay"}, "[3]": {"molecular_target": "SARS-CoV-2 spike protein on fully infectious (replication-competent) SARS-CoV-2 virus (SARS-CoV-2) (UniProt P0DTC2)", "test": "cell-based or functional assay"}, "[4]": {"molecular_target": "SARS-CoV-2 Spike (S) trimer (SARS-CoV-2) (UniProt P0DTC2)", "test": "ELISA on coated S trimer, 1:50"}, "[5]": {"molecular_target": "SARS-CoV-2 spike receptor-binding domain (RBD) (SARS-CoV-2) (UniProt P0DTC2)"}, "[6]": {"molecular_target": "SARS-CoV-2 spike S1 protein (SARS-CoV-2) (UniProt P0DTC2)"}, "[7]": {"molecular_target": "SARS-CoV-2 Spike (S) trimer (SARS-CoV-2) (UniProt P0DTC2)", "test": "SPR binning (Carterra LSA), antibody amine-coupled to the chip as ligand"}}, "data": [{"substance": "Anti-Nucleocapsid (Neg Control) (antibody)", "values": [{"measurement": "Pseudovirus Neturalization", "setting": "[1]", "result": "> 50", "unit": "µg/mL"}, {"measurement": "Pseudovirus Neturalization", "setting": "[2]", "result": "> 50", "unit": "µg/mL"}]}, {"substance": "CB-6 (AB-009264) (antibody)", "values": [{"measurement": "Pseudovirus Neturalization", "setting": "[1]", "result": 0.012, "unit": "µg/mL"}, {"measurement": "Pseudovirus Neturalization", "setting": "[2]", "result": "> 50", "unit": "µg/mL"}, {"measurement": "Neutralization (Infectious virus; (µg/mL))", "setting": "[3]", "result": 0.13, "unit": "µg/mL"}, {"measurement": "OD 450 nm", "setting": "[4]", "result": 2.81, "unit": "OD"}, {"measurement": "Kd", "setting": "[5]", "result": 4.77, "unit": "nM"}, {"measurement": "Response", "setting": "[5]", "result": 0.58, "unit": "nm"}, {"measurement": "koff", "setting": "[5]", "result": 0.000844, "unit": "s⁻¹"}, {"measurement": "kon", "setting": "[5]", "result": 177000, "unit": "M⁻¹ s⁻¹"}, {"measurement": "Kd", "setting": "[6]", "result": 27.7, "unit": "nM"}, {"measurement": "Response", "setting": "[6]", "result": 0.361, "unit": "nm"}, {"measurement": "koff", "setting": "[6]", "result": 0.0107, "unit": "s⁻¹"}, {"measurement": "kon", "setting": "[6]", "result": 386000, "unit": "M⁻¹ s⁻¹"}]}, {"substance": "LY-CoV555 | Bamlanivimab (AB-010160) (antibody)", "values": [{"measurement": "Pseudovirus Neturalization", "setting": "[2]", "result": "> 50", "unit": "µg/mL"}]}, {"substance": "CR3022 (AB-009073) (antibody)", "values": [{"measurement": "Pseudovirus Neturalization", "setting": "[1]", "result": "> 50", "unit": "µg/mL"}, {"measurement": "Pseudovirus Neturalization", "setting": "[2]", "result": 2.61, "unit": "µg/mL"}, {"measurement": "Neutralization (Infectious virus; (µg/mL))", "setting": "[3]", "result": "> 50", "unit": "µg/mL"}, {"measurement": "response as ligand (RU)", "setting": "[7]", "result": "< 20", "unit": "RU"}]}, {"substance": "REGN10933 | Casirivimab (AB-010156) (antibody)", "values": [{"measurement": "Pseudovirus Neturalization", "setting": "[2]", "result": "> 50", "unit": "µg/mL"}]}, {"substance": "REGN10987 | Imdevimab (AB-010157) (antibody)", "values": [{"measurement": "Pseudovirus Neturalization", "setting": "[2]", "result": "> 50", "unit": "µg/mL"}]}, {"substance": "COVA1-21 (AB-010159) (antibody)", "values": [{"measurement": "Pseudovirus Neturalization", "setting": "[1]", "result": 21, "unit": "µg/mL"}, {"measurement": "Pseudovirus Neturalization", "setting": "[2]", "result": "> 50", "unit": "µg/mL"}]}, {"substance": "CA-1 (AB-009265) (antibody)", "values": [{"measurement": "Pseudovirus Neturalization", "setting": "[1]", "result": 0.266, "unit": "µg/mL"}, {"measurement": "Pseudovirus Neturalization", "setting": "[2]", "result": "> 50", "unit": "µg/mL"}, {"measurement": "Neutralization (Infectious virus; (µg/mL))", "setting": "[3]", "result": 2.46, "unit": "µg/mL"}, {"measurement": "OD 450 nm", "setting": "[4]", "result": 2.74, "unit": "OD"}, {"measurement": "Kd", "setting": "[5]", "result": 5.72, "unit": "nM"}, {"measurement": "Response", "setting": "[5]", "result": 0.53, "unit": "nm"}, {"measurement": "koff", "setting": "[5]", "result": 0.000681, "unit": "s⁻¹"}, {"measurement": "kon", "setting": "[5]", "result": 119000, "unit": "M⁻¹ s⁻¹"}, {"measurement": "Kd", "setting": "[6]", "result": 43.6, "unit": "nM"}, {"measurement": "Response", "setting": "[6]", "result": 0.27, "unit": "nm"}, {"measurement": "koff", "setting": "[6]", "result": 0.0127, "unit": "s⁻¹"}, {"measurement": "kon", "setting": "[6]", "result": 291000, "unit": "M⁻¹ s⁻¹"}]}]}
